Source: the supplement of paper PMC9170038

Tested on: MS2 coat protein
Assay: apparent KD of MS2 coat protein; designed switch direction (-1 OFF switch, 1 ON switch): -1; higher = weaker reporter binding
Outline: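 Stalled E. coli RNA polymerase transcribed designed RNA switches on Illumina chips, which were then titrated with SNAP-549-labelled MS2 coat protein, doubling from 0.7 or 1.5 nM to 3 µM. Steps lasted from 0.8–1.5 h at the lowest concentration to 10–20 min at the highest. The apparent KD is each design's median over clusters of curve-fitted normalised fluorescence.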

[1] = input ligand: microRNA oligo, concentration not stated
[2] = Eterna round: R95, input ligand: microRNA oligo, concentration not stated
[3] = Eterna round: R95, input ligand: FMN 200 uM
[4] = Eterna round: R95, input ligand: none

Sequence | apparent KD of MS2 coat protein (input ligand: FMN 200 uM) [nM] | apparent KD of MS2 coat protein [1] [nM] | apparent KD of MS2 coat protein (input ligand: none) [nM] | apparent KD of MS2 coat protein [2] [nM] | apparent KD of MS2 coat protein [3] [nM] | apparent KD of MS2 coat protein [4] [nM]
GGAGGAAAGAUAGGAUAUUCGAGGAAGGUGGUGAUAGAGACAUGAGGAUCACCCAUGUAAGGAGGGAAGAAGGGUCGAGGAGGA [AK ExNG2-V2-7] (Eterna round: R96, puzzle: Exclusion NG 2) | 411 | 193 | 142 |  |  | 
GGAGGAACCGGAGGAUAUUGAUUUAAGCGGUUACGCAAGACAUGAGGAUCACCCAUGUGUCCGGACGAGAAGGCCGAAGAAGAA [ExNG2 3rd] (Eterna round: R96, puzzle: Exclusion NG 2) | 43.7 | 30.6 | 38.9 |  |  | 
GGAGGACGAGCAGGAUAUUUUCACAUGAGGAUCACCCAUGUGUACUCAGGGUAAUCCUCCGCCGAAGAGAAGGGUUCGGAAGAA [Socedi] (Eterna round: R96, puzzle: Exclusion NG 2) | 91 | 23 | 57.1 |  |  | 
GGAGGACGAGCAGGAUAUUUUCACAUGAGGAUCACCCAUGUGUAUUCAGGGUAAUCCUCCGCCGAAAAGAAGGGUUCGGAAGAA [JL ViennaUCT Socedi mod 2] (Eterna round: R96, puzzle: Exclusion NG 2) | 62.9 | 39 | 47.2 |  |  | 
GGAGGGCUAGGAUAUGUAACAGGGAACUUGAGGAUCACCCAAGUGGCCGAAGGCACCCUGGCAGAAGGAGUAAAGA [Inmaislari] (Eterna round: R97, puzzle: Exclusion 5) | 71.6 |  | 50.8 |  |  | 
GGAGUCUUAGGAUAUACAGGUGUGAACAUCCGACGUUUCCAACAUGAGGAUCACCCAUGUAGAAGGAAGACGAG [Eternabot (Original) Solution 5] (Eterna round: R97, puzzle: Exclusion 2) | 824 |  | 783 |  |  | 
GGAGUGUGAGGAUAUAUGGUGAAGGUGAAGAGAGAGGAGGAGUAGAAGGUACAUGAGGAUCACCCAUGUUUAGG [JR_Exclu4_Sub072] (puzzle: Exclusion 4) |  |  |  | 38.5 |  | 
GGAUAAAACUGAGGAUAUGCGGAGAGAGAGAGAGCAGAAGGCAGACAUGAGGAUCACCCAUGUGAGUUCUCGAUAAGAAACACG [Prohibition 57 - Jieux - Exclusion NG 1] (Eterna round: R96, puzzle: Exclusion NG 1) | 107 | 24 | 31.8 |  |  | 
GGAUAUAGGCGAGGAUAUACGCACCACUAACGAGUAGAAGGCGCACAUGAGGAUCACCCAUGUGAGUUCUCAAUAUGAUACACG [Prohibition 70 - Jieux - Exclusion NG 1] (Eterna round: R96, puzzle: Exclusion NG 1) | 14.9 | 14.1 | 18.6 |  |  | 
GGAUCACAUGUCAGGAUAUCCGGGCAGAGUGGCCAGGAGAAGGGACAUGAGGAUCACCCAUGUUGCUUAAAAUU [Bierorerqu] (puzzle: Brourd's mod of Exclusion 4) |  |  |  | 69.9 | 34.8 | 157
GGAUCGAAAGUGAGGAUAUGCUGGUCCUUGGAUCAGCAGAAGGCACAUGAGGAUCACCCAUGUGGGAACGGUCC [Eli bmx4 4.46] (Eterna round: R97, puzzle: Brourd's mod of Exclusion 4) | 1440 |  | 298 |  |  | 
GGAUCGAGUGUGAGGAUAUGCUGGUCCUUGGAUCAGCAGAAGGCACAUGAGGAUCACCCAUGUGACUAAGAUCC [Eli bmx4 4.75] (Eterna round: R97, puzzle: Brourd's mod of Exclusion 4) | 322 |  | 29.8 |  |  | 
GGAUCUAAGGUGAGGAUAUAGACUCCCAAAUGGAUCUAGAAGGCACUUGAGGAUCACCCAAGUAGUCUAGGGAA [Orered] (Eterna round: R97, puzzle: Brourd's mod of Exclusion 4) | 33.6 |  | 16.9 |  |  | 
GGAUCUUGGGUCAGGAUAUGCUGACAGCCAUGUCAGCAGAAGGGACAUGAGGAUCACCCAUGUGCUCGGUUUUG [Magic-19] (puzzle: Brourd's mod of Exclusion 4) |  |  |  | 10.1 |  | 
GGAUCUUGGGUCAGGAUAUGCUGAUAGUUAUGUCAGCAGAAGGGACAUGAGGAUCACCCAUGUGCUCGGUUUUG [Magic-18] (puzzle: Brourd's mod of Exclusion 4) |  |  |  | 11.3 |  | 
GGAUUACGAGGAUAUCGAUUUUAGUACAUGAGGAUCACCCAUGUUGUCCAGGUCUCGUUUCGAGAAGGCGUGAUUC [LRO-Ex5-06] (puzzle: Exclusion 5) |  |  |  | 58.4 |  | 
GGAUUCCAGUGAGGAUAUCCAAAUAAAAGCCAUGGAGAAGGCACAUGAGGAUCACCCAUGUAGGGCAAUAACAGCGAACGCUGC [Erenlege] (Eterna round: R96, puzzle: Exclusion NG 1) | 73 | 43.3 | 30.8 |  |  | 

Sequence | apparent KD of MS2 coat protein (input ligand: FMN 200 uM) [nM] | apparent KD of MS2 coat protein [1] [nM] | apparent KD of MS2 coat protein (input ligand: none) [nM] | apparent KD of MS2 coat protein [2] [nM] | apparent KD of MS2 coat protein [3] [nM] | apparent KD of MS2 coat protein [4] [nM]
GGCAAACAUGAGGAUCACCCAUGUAAGGAUAUUAGGCGAUCGUCGAAAGACGAUAGCCUGAGAAGGUGCAUGCC [Eli x1 4.15] (Eterna round: R97, puzzle: Exclusion 1) | 38.8 |  | 22.4 |  |  | 
GGCAAUAUGUAGGAUAUCGUAUCGGAAACGAUACGAGAAGGGCAAACAUGAGGAUCACCCAUGUUCCUUAAGCC [Fiskers Ex 6 - 10] (puzzle: Exclusion 6) |  |  |  | 13.5 |  | 
GGCAUAAACGAGGAUAUCGAUACGGAAACGUAUCGAGAAGGUGUAACAUGAGGAUCACCCAUGUUCCUCAAGCC [Mat - Exclusion 6 - Eli Mod - D60] (puzzle: Exclusion 6) |  |  |  | 29.1 |  | 
GGCAUAAACGAGGAUAUCGUUACGGAAACGUAACGAGAAGGUGUAACAUGAGGAUCACCCAUGUUCCUCAAGCC [Mat - Exclusion 6 - Eli Mod - D59] (Eterna round: R96, puzzle: Exclusion 6) | 36.8 | 29.8 | 38 |  |  | 
GGCAUAAACGAGGAUAUCGUUACGGAAACGUAACGAGAAGGUGUAACAUGAGGAUCACCCAUGUUCCUCAAGCC [Mat - Exclusion 6 - Eli Mod - D59] (puzzle: Exclusion 6) |  |  |  | 28.9 |  | 
GGCAUCGGAGGAUAUAUUUAUGGUGAUACCGGAAGCUUUCUACUUGAGGAUCACCCAAGUAGAAGGCCGAUGCC [jl-ex2.4.85 ViennaUCT mod] (Eterna round: R97, puzzle: Exclusion 2) | 39.5 |  | 13.7 |  |  | 
GGCAUGUGAGGAUAUGCGAAGGGAAGGAGAGGGAAAGAGAAGCAGAAGGCACAUGAGGAUCACCCAUGUAAGGG [AK-MS2ROC-r4-exclusion4-8] (Eterna round: R97, puzzle: Exclusion 4) | 34.1 |  | 203 |  |  | 
GGCCCUAAGGUCAGAUCCACAAGCUUUUUGCUCGUUUUAACAUGAGGAUCACCCAUGUCUAGUGGAUUUGAUCCUCA [Sensor v3, turn-off variant 2 (MOD of Indiso v.5)] (puzzle: Sensor v3, turn-off variant 2) |  |  |  | 14.5 | 36.2 | 41.3
GGCCCUAAGGUCAGAUUCACAAGCUUUUUGCUCGUUUUAACAUGAGGAUCACCCAUGUCUAGUGGAUCUGAUCCUCA [Sensor v3, turn-off variant 2 (MOD of Indiso v.2)] (puzzle: Sensor v3, turn-off variant 2) |  |  |  | 11.8 | 21.6 | 20.1
GGCCCUAGGGUCAGACGCACAAGCUUUUUGCUCGUUUUAACAUGAGGAUCACCCAUGUCUAGUGGAUCUGAUCGGGU [Mausinonra] (Eterna round: R96, puzzle: Sensor v3, turn-off variant 2) | 19.6 | 96.8 | 25.8 |  |  | 
GGCCCUAGGGUCAGACGCACAAGCUUUUUGCUCGUUUUAACAUGAGGAUCACCCAUGUCUAGUGGAUCUGAUCGGGU [Mausinonra] (puzzle: Sensor v3, turn-off variant 2) |  |  |  | 111 | 20.6 | 18.5
GGCCGAGAACAGCUCCGCGCUGCCCUCAGCCGCUCAUUUACAUGAGGAUCACCCAUGUUUUUUGCUUGUCUUGUUUC [Antibe] (puzzle: Sensor v3, turn-off variant 2) |  |  |  | 104 | 20.3 | 22.3
GGCGAAGUAGGAUAUACAUGAGGAUCACCCAUGUAACCUAUAGGCGAAGAUCUUCUAUGUAGAAGGACUACGCU [jl-ex3-4.40 ViennaUCT mod] (Eterna round: R97, puzzle: Exclusion 3) | 15.3 |  | 15.3 |  |  | 
GGCGCACAUGAGGAUCACCCAUGUGAGGAUAUUAGGCGAUCGUCGAUAGACGAUAGCCUGAGAAGGCACAUGCC [Mat - Exclusion 1 - Eli Mod - D18] (Eterna round: R97, puzzle: Exclusion 1) | 188 |  | 29.3 |  |  | 
GGCGCCUGAGGAUAUCAGUCUGGAUCAGAAUAGAUCCUGACUGAGAAGGCACAUGAGGAUCACCCAUGUUCGCC [Eli 4x 4.28] (Eterna round: R97, puzzle: Exclusion 4) | 16.4 |  | 14.8 |  |  | 
GGCUGACAUGUAGGAUAUCUGCACGAUUAGUGCAGAGAAGGACAUGAGGAUCACCCAUGUAUAGCGACUUCGGUCGCAACAGCC [ENG1/2-A1] (Eterna round: R96, puzzle: Exclusion NG 1) | 155 | 31 | 40 |  |  | 
